{"source": "patent US20190276499A1", "about": "“Protein VII Fragments and Methods of Use Thereof for the Treatment of Inflammatory Disorders” (priority 2016, published 2019)", "molecules": {"B1": {"name": "protein VII: mature protein VII of human adenovirus type 5 (SEQ ID NO:1), expressed in cells, mostly with C-terminal HA tag (protein)", "chain": "AKKRSDQHPVRVRGHYRAPWGAHKRGRTGRTTVDDAIDAVVEEARNYTPTPPPVSTVDAAIQTVVRGARRYAKMKRRRRRVARRHRRRPGTAAQRAAAALLNRARRTGRRAAMRAARRLAAGIVTVPPRSRRRAAAAAAAAISAMTQGRRGNVYWVRDSVSGLRVPVRTRPPRN", "modifications": "C-terminal HA tag; Human adenovirus 5"}}, "tested_on": "nucleosomes", "experiment": "Nucleosome in vitro binding and MNase digestion assays", "description": "Gel shift and MNase digestion assays were carried out as described (Falk et al. (2015) Science 348:699-703; Hasson et al. (2013) Nat. Struct. Mol. Biol., 20:687-695; Sekulic et al. (2010) Nature 467:347-351). Briefly, nucleosomes were reconstituted by incubating purified recombinant histones with ‘601’ DNA of either 195 or 147 bp over a series of dialysis. Recombinant protein VII-His was then combined with nucleosomes at various molar ratios, incubated at room temperature for 15 minutes, and analyzed by native gel electrophoresis. Complexes were also digested with MNase (Affymetrix) by addition of 1 unit per μg of DNA for 147 bp nucleosome experiments and 0.1 unit per μg of DNA for 195 bp nucleosome experiments, incubated at 22° C. for varying amounts of time followed by the addition of EGTA and guanidine thiocyanate to stop the reaction. The DNA fragments were then purified using a MinElute PCR purification kit (Qiagen) and analyzed on an Agilent 2100 Bioanalyzer as described (Falk et al. (2015) Science 348:699-703).", "note": "“Also recorded” adds a separate entry of the source.", "data": [{"molecule": "B1", "values": [{"measurement": "Protection from MNase digestion", "setting": "147 bp nucleosome core particle", "result": "completely blocks digestion; also recorded: protects against MNase digestion"}, {"measurement": "Nucleosome mobility on native gel electrophoresis", "setting": "195 bp nucleosomes", "result": "changed nucleosome mobility"}, {"measurement": "Point at which MNase digestion of nucleosomal DNA pauses", "setting": "195 bp nucleosomes", "result": 165, "unit": "bp"}]}]}
